Source: patent US20230115257A1 (published 2023)

B1: 2-G20-A (antibody, V domains shown)
VH: EVQLQQSGPELVKPGASVKMSCKASGYTFPSYVLHWVKQKPGQGLEWIGYIYPYNDGTNYNEKFKGKATLTSDKSSSTAYMELSSLTSEDSAVYYCARGDYGDSAWFPYWGQGTLVTVSA
VL: DIVLTQSPASLAVSLGQRATISCRASKSVSTSGYSYMHWYQQKPGQPPKLLIYLASNLKSGVPARFSGGGSGTDFTLNIHPVEEEDAATYYCQLSRELPWTFGGGTKLEIK
B2: 2-H7-A (antibody, V domains shown)
VH: QAYLQQSGAELVRPGASVKMSCKASGYTFTGYTMHWVKQTPRQGLEWIGAIYPENGDTSYNQKFKGKATLTVDKSSSTAYMQLSSLTSEDSAVYFCARDGYDVLYGMDYWGQGTSVTVSS
VL: DIVLTQSPASLAVSLGQRATISCRASKSVSTSGYSYMHWYQQKPGQPPKLLIYLASNLESGVPARFSGSGSGTDFTLNIHPVEEEDAATYYCQHSRELPWTFGGGTKLDIK
B3: 8-A17-A (antibody, V domains shown)
VH: QVQLKESGPGLVAPSQSLSITCTVSGFSLTSYAISWVRQPPGKGLEWLGVVWPGGGTNYNSALKSRLSINKDNSKSQVFLKMNSLQTDDTGRYYCARTGYHFDYWGQGTTLTVSS
VL: QIVLTQSPAIMSASPGEKVTMTCSVSSSVSYMHWYQQKSGTSPKRWIYDTSKLASGVPARFSGSGSGTSYSLTISSMEAEDAATYYCQQWSSNPPMYTFGGGTKLEIK
B4: 1-B11-A (antibody, V domains shown)
VH: QVQLQQSGPELVKPGASVKISCKASGYTFTDHYINWVKQRPGQGLEWIGWIFPGSGSTYYNEQFKGKATLTVDKSSNTAYMLLSSLTSEDSAVYFCARSGGLRLGFAYWGQGTLVTVSA
VL: DIQMTQTTSSLSASLGDRVTISCRASQDISNYLNWYQQKPDGTVKLLIYYTSRLHSGVPSRFSGSGSGTDYSLTISNLEQEDISTYFCQQVNTLPYTFGGGTKLEIK
B5: 9-F6-A (antibody, V domains shown)
VH: EVQLQQSGPELVKPGASVKMSCKASGYTFTSYIMHWVKQKPGQGLEWIGYILPYNDGTKYNEKFKGKATLTSDKSSSTAYMELRSLTSEDSAVYYCARWGYSNFLDSWGQGTTLTVSS
VL: DIQMTQTTSSLSASLGDRVTISCRASQDINNYLNWYQQKPDGTVKLLIYYTSRLHSGVPSRFSGSGSGTDYSLTIRNLEQEDIATYFCQQGNTLPPTFGGGTKLEIK
B6: 3-E2-A (antibody, V domains shown)
VH: EVQLQQSGPELVKPGASVKISCKASGYTFTDYYMNWVKQSHGKSLEWIGDINPNNGGTSYTQKFKGKATLTVDKSSSKAYMELRSLTSEDSAVYYCARRGDGHYGGFTYWGQGTLVTVSA
VL: not shown
B7: 2-O12-A (antibody, V domains shown)
VH: EVQLQQSGPELVKPGASVKISCKASGYTFTDYYMNWVKQSHGKSLEWIGDINSNNGGTTYDQKFKGKATLTVDRSSSTAYMELRSLTSEDSAVYYCARRGDGHFGGFTYWGQGTLVTVSA
VL: not shown
B8: 6-O12-A (antibody, V domains shown)
VH: QVQLQQPGTELVKPGASVKLSCKASGYTFTSYWMHWVKQRPGQGLEWIGNINPSNGGTNYNEKFRSKATLTVDKSSSTAYMQLSSLTSEDSAVYYCARLGWFLPLGSWGQGTTLTVSS
VL: QIVLTQSPAIMSASLGEVITLTCSASSSVSYMHWYQQKSGTSPKLLIYSTSNLASGVPSRFSGSGSGTFYSLTISSVEAEDAADYYCHQWSGYMYTFGGGTKLEIK
B9: 1-L10-A (antibody, V domains shown)
VH: EVKLEESGGGLVQPGGSMKLSCVASGFTFNNYWMNWVRQSPEKGLEWVAQMRLKSDNYATHYAESVKGRFTISRDDSKSSVYLQMNNLRAEDTGIYYCIEGYWTYWGQGTLVTVSA
VL: QIVLTQSPAIMSASLGERVTMTCTASSSVSSSYLHWYQQKPGSSPKLWIYSTSNLASGVPARFSGNGSGTSYSLTISSMEAEDAATYYCLQYHRSPPYTFGGGTKLEIK
B10: 4-L4-A (antibody, V domains shown)
VH: QAYLQQSGAELVRPGASVKMSCKASGYTFTSYTVHWVKQTPRQGLEWIGGIYPGNVDTSYNQNFKGKATLTVDKSSSTAYMQLSSLTSEDSAVYFCARDGYYAMDYWGQGTSVTVSS
VL: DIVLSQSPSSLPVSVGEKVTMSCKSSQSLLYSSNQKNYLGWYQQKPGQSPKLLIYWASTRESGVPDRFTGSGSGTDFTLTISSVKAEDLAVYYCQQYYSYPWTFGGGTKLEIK
B11: 8-H5-A (antibody, V domains shown)
VH: QVTLKESGPGILQSSQTLSLTCSLSGFSLSTSGMGVSWVRQPSGKGLEWLAHIYWDDDKRYTPSLKSRLTISTDSSRKQVFLKITSVDTADTATYYCARRDLHDYDGWFAYWGQGTLVTVSA
VL: DIVMTQSQKFMSTAVGDRVSVTCKASQNVGTNVAWYQQKPGQSPKALIYSASFRYSGVPDRFSGSGSGTDFTLTISNVQSEDLAEYFCQQYNSYPLTFGSGTKLEIK
B12: 4-M3-A (antibody, V domains shown)
VH: EVQLQQSGPELVKPGDSVKISCKASGYSFTGYFMNWVMQSHGKSLEWIGRINPNNGETFYNQKFKGKATLTVDKSSDTAHMELRSLTSEDSAVYYCARGGTGTGWGQGTTLTVSS
VL: DILMTQSPSSMSVSLGDTVSITCHASQGISSNIGWLQQKPGKSFKGLIYYGTNLEDGVPSRFSGSGSGADYSLTISSLESEDLADYYCIQYAQFPYTFGGGTKLEIK
B13: 4-N22-A (antibody, V domains shown)
VH: QVQLQQPGTELVKPGASVKLSCKASGYTFTNYWMYWVKQRPGQGLDWIGNINPSNGGTNYNEKFKSKATLTVDKSSSTAYMQLSSLTSEDSAVYYCARETGNYWGQGTTLTVSS
VL: DILMTQSPSSMSVSLGDTVSISCHASQGISSNIGWLQQKPGKSFKGLIYHGTNLEDGVPSRFSGSGSGADYSLTISSLESEDFADYYCVQYAQFPYTFGGGTKLEIK
B14: 8-L17-A (antibody, V domains shown)
VH: EVQLVESGGGLVQPKGSLKLSCAASGFTFNTYAMHWVRQAPGKGLEWVARIRSKSSNYARYYADSVKDRFTISRDDSQSMLYLQMNNLKTEDTAMYYCVRDHDYYGSSYWFAYWGQGTLVTVSA
VL: DVVMTQTPLSLPVSLGDQASISCRSSQSLVHNNGNTYLHWYLQKPGQSPKLLIYKVSNRFSGVPDRFSGSGSGTDFTLKISRVEAEDLGVYFCSQSTHVPWTFGGGTKLEIK
B15: 2-P2-A (antibody, V domains shown)
VH: EVQLQQSGAELVRPGSSVKMSCKTSGYTFTSYGINWVKQRPGQGLEWIGYIYIGNGYTEYNEKFKGKATLTSDTSSSTAYMQLSSLTSEDSAIYFCARGGVDYWGQGTTLTVSS
VL: DVLMTQTPLSLPVSLGDQASISCRSSQSIVHSNGNTYLEWYLQKPGQSPKLLIYKVSNRFSGVPDRFSGSGSGTDFTLKISRVEAEDLGVYYCFQGSHVPYTFGGGTKLEIK
B16: 8-H3-A (antibody, V domains shown)
VH: EVQLVESGGGLVQPKGSLKLSCAASGFTFNTYAMHWVRQAPGKGLEWVARIRSKSSNYATYYADSVKDRFTISRDDSQSMLYLQMNNLKTEDTAMYYCVRDHDYYGSSYWFTYWGQGTLVTVSA
VL: DVVMTQTPLSLPVSLGDQASISCRSSQSLVHDNGNTYLHWFLQKPGQSPKLLIYKVSNRFSGVPDRFSGSGSGTDFTLKISRVETEDLGVYFCSQSTHVPWTFGGGTKLEIK

Experiments:
[1] = target: SARS-CoV-2 (WIV02 isolate) prefusion stabilized spike trimer protein (UniProt P0DTC2 14-1213); test: ELISA
SARS-CoV-1 spike protein = SARS-CoV-1 spike protein (SARS-CoV-1, UniProt P59594 14-1195); test: ELISA

Binder | IC50 [1] | IC50 (SARS-CoV-1 spike protein)
B1 | 18.3 nM | 6.65 nM
B2 | 7.21 nM | –
B3 | – | 5.1 nM
B4 | – | 20.9 nM
B5 | 16.7 nM | 5.55 nM
B6 | 18.4 nM | –
B7 | 14.9 nM | –
B8 | 7.62 nM | 5.4 nM
B9 | 8.65 nM | 7.5 nM
B10 | 8.34 nM | –
B11 | 12.8 nM | –
B12 | 7.36 nM | –
B13 | 4.93 nM | –
B14 | 60.8 nM | –
B15 | – | 17.9 nM
B16 | 19.4 nM | –
